Results taken from patent publication US20090325168.

Experiments:
[1] = target: T1, Fm-CGD2D, Fm-K[F1]DBJGDEVDGIDGJPK[F1]GY (compound 11 of Table 12)
T1 chain: KDXXGDEVDGIDGXPKGY

[2] = target: T2, Fm-G2D2D, Fm-K[F1]DBGDEVDGIDGPK[F1]GY (compound 10 of Table 12)
T2 chain: KDXGDEVDGIDGPKGY

B1: CPP32 protease (protein)
chain: SGISLDNSYKMDYPEMGLCIIINNKNFHKSTGMTSRSGTDVDAANLRETFRNLKYEVRNKNDLTREEIVELMRDVSKEDHSKRSSFVCVLLSHGEEGIIFGTNGPVDLKKITNFFRGDRCRSLTGKPKLFIIQACRGTELDCGIETDSGVDDDMACHKIPVEADFLYAYSTAPGYYSWRNSKDGSWFIQSLCAMLKQYADKLEFMHILTRVNRKVATEFESFSFDATFHAKKQIPCIVSMLTKELYFYH
How did the “hydrolysis rate, fold increase over compound 10 (Fm-G2D2D)” value [1] turn out when B1 was run?
The value was “the hydrolysis rate was further increased by ca. 3-fold over the above glycine residue insertion”.

What about the “substrate hydrolysis rate, fold increase over compound 4 (Fm-DEVD)” value [1] of the same protein?
Its value is “overall at least a 9-fold increase in substrate hydrolysis rate was accomplished (compounds 4 and 11, Table 12)”.

What about the “hydrolysis rate, fold increase over compound 4 (Fm-DEVD)” value [2] of the same protein?
The value was “The hydrolysis rate was increased by 3-fold between compounds 4 ... and 10”.
